Consider one substance from patent US20170290892A1, “POLYMERIC […]” (PEG BIOSCIENCES, INC., priority 2014, published 2017).

The nature of the series: Degradation of 20K OGF-PEG ester conjugate and release of OGF in human plasma at 37 °C. Particulars: incubated in human plasma at 37 °C, 0.5 to 24 hours; reversed-phase HPLC or size exclusion chromatography. In kind it is in vitro ADME. As to the method: Experiments for degradation of the 20K Tyr-gly-gly-phe-met-C(O)—O-mPEG conjugate (20K OGF-C(O)—O-mPEG or 20K OGF—PEG ester) and the release of OGF were conducted in human plasma at 37 ° C. The OGF—PEG conjugate containing hydrolysable ester linkages was incubated in human plasma at 37° C. for various periods of time, ranging from 0.5 to 24 hours. An aliquot plasma sample was withdrawn and treated with acetonitrile or acetonitrile/methanol organic solvent, vortexed, centrifuged, and concentrated. The solution residue was then analyzed by reversed-phase HPLC chromatography or size exclusion chromatography to check the amount of OGF-PEG and the released amount of OGF at various time points. The plasma T1/2 for 20K OGF-C(O)—O-mPEG was about 5 hours.

With “20K Tyr-Gly-Gly-Phe-Met-C(O)O-mPEG [20K OGF-C(O)—O-mPEG]”, the “plasma T1/2” value is given as “about 5 hours”.
